Results published in PMC10858482.

Experiments:
[1] = target: MP-3fc (miniACE2-(GGGGS)3-coiled-coil, trivalent); assay: SEC
[2] = target: MP-5rc (miniACE2-(EAAAK)5-coiled-coil, trivalent); assay: SEC
[3] = target: MP-3rc (miniACE2-(EAAAK)3-coiled-coil, trivalent); assay: SEC
[4] = target: MP-5fc (miniACE2-(GGGGS)5-coiled-coil, trivalent); assay: SEC
[5] = target: MP-3ff (miniACE2-(GGGGS)3-foldon, trivalent) (bacteriophage T4); assay: SEC
[6] = target: MP-5ff (miniACE2-(GGGGS)5-foldon, trivalent) (bacteriophage T4); assay: SEC
[7] = target: RBD of the S protein of SARS-CoV-2 (Wuhan-Hu-1) (SARS-CoV-2 (Wuhan-Hu-1)) (UniProt P0DTC2); assay: BLI; Octet RED96e; RBD (Wuhan-Hu-1) immobilised on HIS1K biosensors; analyte 50-3.125 nM miniACE2 or 100-3.125 nM MP-5ff in 1x PBS, 0.02% Tween-20, 0.1% BSA; association 1 min, dissociation 3 min; 1:1 binding model
[8] = target: MP-3rf (miniACE2-(EAAAK)3-foldon, trivalent) (bacteriophage T4); assay: SEC
[9] = target: MP-5rf (miniACE2-(EAAAK)5-foldon, trivalent) (bacteriophage T4); assay: SEC

Substance: MP-3fc (miniACE2-(GGGGS)3-coiled-coil, trivalent) (designed binder)
- stoichiometry N [1]: 3

Substance: MP-5rc (miniACE2-(EAAAK)5-coiled-coil, trivalent) (designed binder)
- stoichiometry N [2]: 3

Substance: MP-3rc (miniACE2-(EAAAK)3-coiled-coil, trivalent) (designed binder)
- stoichiometry N [3]: 3

Substance: MP-5fc (miniACE2-(GGGGS)5-coiled-coil, trivalent) (designed binder)
- stoichiometry N [4]: 3

Substance: MP-3ff (miniACE2-(GGGGS)3-foldon, trivalent) (designed binder)
- stoichiometry N [5]: 3

Substance: MP-5ff (miniACE2-(GGGGS)5-foldon, trivalent) (designed binder)
- stoichiometry N [6]: 3
- Kd [7]: < 0.001 nM
- koff [7]: < 1e-07 s⁻¹

Substance: miniACE2 (microprotein LCB3) (designed binder)
- Kd [7]: 1.03 nM
- koff [7]: 0.000986 s⁻¹

Substance: MP-3rf (miniACE2-(EAAAK)3-foldon, trivalent) (designed binder)
- stoichiometry N [8]: 3

Substance: MP-5rf (miniACE2-(EAAAK)5-foldon, trivalent) (designed binder)
- stoichiometry N [9]: 3
